Source: PMC4842275

Target: HIV-1 capsid of the wild type HIV-1GFP vector (HIV-1)

engineered human TRIM5alpha fused with CypA at position S322 (T5Cyp) (from UniProt Q9C035 1-322)
restriction of HIV-1GFP infection (GFP+ cells by FACS 48 h after infection) in Jurkat T5Cyp cells compared to H126Q cells: 10 fold
